As usually defined, the Kd is the constant that tells how readily two partners part at equilibrium. A low value points to tighter binding.

In one experiment the target is Native hu MSLN (cells) (UniProt Q13421). Description: KinExA. On the technique in general: In KinExA the mixture passes briefly over coated beads that capture the unbound partner.
For experiment [1], the target named is Soluble human MSLN (UniProt Q13421). Description: Biacore. On the technique in general: Surface plasmon resonance follows binding to a sensor surface in real time, without labels.
Soluble human MSLN, sequence (Q13421 296-606): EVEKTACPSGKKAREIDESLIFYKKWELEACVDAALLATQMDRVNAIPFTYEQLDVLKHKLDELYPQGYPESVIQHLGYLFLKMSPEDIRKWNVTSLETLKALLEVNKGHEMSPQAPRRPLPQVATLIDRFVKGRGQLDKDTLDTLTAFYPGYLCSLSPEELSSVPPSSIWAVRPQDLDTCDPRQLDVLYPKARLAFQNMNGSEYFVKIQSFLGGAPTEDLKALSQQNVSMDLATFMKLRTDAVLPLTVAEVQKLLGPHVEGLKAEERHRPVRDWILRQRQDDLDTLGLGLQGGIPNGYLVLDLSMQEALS
Experiment [2] has the same target. Description: Biacore; published value.

Native hu MSLN (cells), sequence (Q13421 296-606): as above

Morab-009 (ssI CDRs): the Kd was 0.0022 nM with Native hu MSLN (cells), 0.16 nM with Soluble human MSLN [1] and 1.5 nM with Soluble human MSLN [2].

The values are drawn from patent US20190055316A1.
